These results are taken from patent US20170252417A1 (MIT, published 2017).

The test concerns the target mouse serum albumin (MSA) (mouse, UniProt P07724 25-608). As to the kind of experiment: yeast surface display library on rcSso7d scaffold, selection for MSA binders.

B1: M18.2.5 (designed binder)
chain: ATVKFTYRGEEKQVDISKIKWVVRLGQVIMFKYDEGGGASGYGRVSEKDAPKELLQMLEK
notes: Isolated from a yeast surface display library built on the rcSso7d scaffold; In the vaccines it was fused at its C-terminus to GGGS-His tag-GGGS-E7 long
Take B1: the binding result is given as “binds”.

B2: M11.1.2 (designed binder)
chain: ATVKYTYRGEEKRVDISKIKWVNRWGQHLAFKYDKGGGAAGYGWVSEKDAPKELLQMLEKR
notes: as for B1
Take B2: the binding result was “binds”.
